Reference: article PMC12381204

Target: Nucleocapsid protein (N), unmodified (SARS-CoV-2, UniProt P0DTC9 2-419)
Assay: fluorescence polarization
Details: protein: recombinant, tags: N-terminal 6xHis-TEV site, cleaved by TEV (Gly left before S2), chain copies: 2, label: 5'-FAM

B1: SL4 RNA (structured_RNA)
RNA: CUGUGUGGCUGUCACUCGGCUGCAUGCUUAGUGCACUCACGCAG
hairpin
  Kd: 10.9 ± 1.4 nM

B2: polyrA 30-mer (ssRNA)
RNA: AAAAAAAAAAAAAAAAAAAAAAAAAAAAAA
Single strand, unstructured
  Kd: 71.7 ± 0.8 nM
